From the supplement of paper PMC10567573

B1: MNAT1 (parent)
chain: LAPIHKLEEALYEYQPLQIETYGP

Variants of: B1
Assay: protein stability index of a GFP-peptide fusion (GPS, HEK-293T) (PSI 1-6); higher = more stable
Conditions: c terminus: a fixed tail appended
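Further: lentivirally expressed fusions sorted by FACS into six bins by GFP to DsRed ratio, PSI derived from sequencing read proportions per bin multiplied by bin number.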

Protein stability index of substitutions, site by site:
P16: C 2.06 | E 2.67 | L 1.88 | N 2.94 | H 2.43
A10: L 1.69 | K 2.52 | W 1.8 | G 2.88 | R 2.05 | Y 2.35 | F 2.45 | I 2.1 | E 3.04 | S 2.28
P3: L 2.95 | M 2.48 | I 2.72 | W 1.44 | F 2.67 | S 2.12 | E 1.97 | C 1.53 | H 1.87 | G 2.02
A2: S 2.29 | D 1.77 | G 1.45 | P 2.3 | Q 2.07 | Y 1.9 | I 1.91 | E 2.47
Q18: F 2.9 | E 2.08 | W 1.96 | D 3.99 | V 2.25 | N 1.92
I4: H 2.63 | D 2.78 | Q 2.7 | P 2.55 | K 2.17 | C 2.49 | S 2.3 | Y 1.66 | L 2.04
E9: G 2.62 | I 2.42 | P 2.25 | M 2.34 | A 2.48 | Y 1.32 | H 2.15
L1: A 2.28 | N 2.79 | E 2.52 | T 2.33 | P 2.3 | R 2.5
H5: E 1.92 | V 1.49 | P 1.84 | K 2.62 | L 1.88 | Q 2.92 | C 1.64 | W 2.34
P24: D 1.95 | W 1.99 | C 2.67 | A 2.14 | G 1.82
T21: W 3.09 | E 1.8 | Q 1.57 | R 2.09 | F 5.16
L11: K 3.38 | H 2.54 | P 3.17 | Y 2.42 | T 2.57 | E 3.57 | N 3.41
L7: M 3.05 | A 3.44 | S 3.52 | I 2.15 | C 2.69 | G 2.81 | H 3.55 | T 3.33 | P 3.29 | Y 2.85 | Q 2.97
Y22: V 1.76 | W 2.1 | F 3.02 | C 1.96 | H 1.91 | I 1.81
Q15: F 1.17 | K 2.26 | S 2.07 | M 1.94 | Y 1.44 | E 2.36
K6: Q 2.24 | N 2.27 | M 1.44 | I 1.4 | Y 2.1 | G 1.9
G23: Y 1.87 | M 2.17 | N 1.85 | F 1.92 | S 2.1 | I 2.07
E13: A 1.53 | R 1.8 | N 1.61 | D 2.9 | V 2.04 | H 2.7
L17: W 1.95 | C 2.51 | N 3.01 | K 3.19 | Y 2.59 | A 2.5 | M 2.33
E20: Y 2.74 | R 1.79 | D 1.95 | P 2.59 | Q 2.19 | S 1.71
Y14: Q 2.87 | V 2.75 | F 2.1 | G 3.45 | D 4.2 | M 2.42 | H 3.32 | I 2.52 | T 3.33
I19: V 2.63 | D 4.07 | R 3.1 | F 1.85 | Y 1.92 | T 2.61 | E 3.3
E8: G 2.02 | N 1.8 | W 3.45 | K 2.52 | D 2.52
Y12: W 2.39 | K 1.93 | C 1.82 | H 1.54 | N 3.07 | T 2.24
